# Laboratory results: PMC10254243
# Columns and labels:
# [1] = molecular target: 5-enolpyruvylshikimate-3-phosphate synthase (EPSPS) from Agrobacterium sp. strain CP4 (CP4-EPSPS) (Agrobacterium sp. strain CP4) (UniProt Q9R4E4); experiment: SEC; Enrich SEC 650 column on FPLC, PBS pH 7.2, 25 °C, 0.5 mL/min, calibrated with Gel Filtration Standard; after Ni-NTA affinity chromatography
# [2] = molecular target: 5-enolpyruvylshikimate-3-phosphate synthase (EPSPS) from Agrobacterium sp. strain CP4 (CP4-EPSPS) (Agrobacterium sp. strain CP4) (UniProt Q9R4E4); experiment: native gel or EMSA; native-PAGE of the purified CP4-EPSPS protein (10 μg)
substance,measurement,setting,value
5-enolpyruvylshikimate-3-phosphate synthase (EPSPS) from Agrobacterium sp. strain CP4 (CP4-EPSPS) (from UniProt Q9R4E4 1-455) (enzyme),stoichiometry N,[1],2
same,stoichiometry N,[2],2
